Ends that are not written are not given here.

Series [1] deals with Kv1.1 (Homo sapiens, UniProt Q09470). In kind it is cell-based.
The conditions of series [2]: comparison value; source not explicitly stated; cited from earlier work.
The target of series [3] is Kv1.5 (wildtype) (UniProt P22460).
Series [4] concerns the target Kv1.1 E353T (UniProt Q09470).
Series [5] addresses Kv1.5 R487T (UniProt P22460).
Series [6] addresses Kv1.1 Y379V (UniProt Q09470).

Kv1.1, sequence (Q09470 whole entry): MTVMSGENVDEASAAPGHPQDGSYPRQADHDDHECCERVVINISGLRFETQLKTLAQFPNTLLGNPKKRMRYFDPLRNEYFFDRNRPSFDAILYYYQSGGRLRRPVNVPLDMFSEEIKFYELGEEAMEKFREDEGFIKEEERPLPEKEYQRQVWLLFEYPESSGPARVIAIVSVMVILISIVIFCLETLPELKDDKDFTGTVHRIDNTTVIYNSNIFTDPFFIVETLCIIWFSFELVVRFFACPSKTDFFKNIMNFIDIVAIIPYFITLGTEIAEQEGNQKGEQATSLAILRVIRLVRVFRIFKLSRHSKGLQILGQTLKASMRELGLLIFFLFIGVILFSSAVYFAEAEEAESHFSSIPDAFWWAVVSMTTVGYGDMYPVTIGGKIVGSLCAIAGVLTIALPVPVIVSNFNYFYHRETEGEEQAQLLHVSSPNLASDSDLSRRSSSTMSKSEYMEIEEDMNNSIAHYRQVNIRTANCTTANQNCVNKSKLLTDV
Kv1.5 (wildtype), sequence (P22460 whole entry): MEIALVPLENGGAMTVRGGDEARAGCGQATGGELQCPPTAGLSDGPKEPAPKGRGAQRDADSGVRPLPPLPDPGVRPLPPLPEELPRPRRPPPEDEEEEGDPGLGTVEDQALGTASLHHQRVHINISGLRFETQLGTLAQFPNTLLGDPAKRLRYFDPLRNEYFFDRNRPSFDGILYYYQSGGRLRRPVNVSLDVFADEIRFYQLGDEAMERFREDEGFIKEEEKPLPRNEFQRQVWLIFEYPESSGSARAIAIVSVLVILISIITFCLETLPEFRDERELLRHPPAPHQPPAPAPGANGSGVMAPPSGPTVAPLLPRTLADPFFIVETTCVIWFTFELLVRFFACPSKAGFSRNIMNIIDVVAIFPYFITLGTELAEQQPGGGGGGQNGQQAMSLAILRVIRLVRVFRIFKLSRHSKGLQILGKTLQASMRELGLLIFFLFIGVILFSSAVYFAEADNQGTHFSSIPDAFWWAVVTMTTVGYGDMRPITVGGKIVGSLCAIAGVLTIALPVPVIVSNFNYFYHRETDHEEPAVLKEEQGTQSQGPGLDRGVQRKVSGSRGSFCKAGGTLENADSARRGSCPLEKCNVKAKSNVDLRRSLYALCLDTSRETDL
Kv1.1 Y379V, sequence (Q09470 whole entry Y379V): as the sequence (Q09470 whole entry) above, with Y379V counted along it
Kv1.1 E353T, sequence (Q09470 whole entry E353T): as the sequence (Q09470 whole entry) above, with E353T counted along it
Kv1.5 R487T, sequence (P22460 whole entry R487T): as the sequence (P22460 whole entry) above, with R487T counted along it

As a reminder, the IC50 is the concentration needed to halve the response being measured. On to `CC[N+](CC)(CC)CC` [TEA, Tetraethylammonium], for which, in series [1] (0.4 mM TEA, n = 6, 250-ms steps to +10 mV), the “reduction of the K+ current by TEA” value is on record as 55 ± 2%. In addition, in series [1] (read-out: IC50 of TEA on Kv1.1, Kv1.1, source of the IC50 not stated), the half-inhibitory concentration (IC50) came to 400 µM.

As for “OcyC8: κ-KTx2 scorpion toxin from Opisthacanthus cayaporum (YDACVNACLEHHPNVRECEEACKNPVPP; UniProt P86110 43-70, looked up)”, in series [2], the “pI of OcyC8” value was 4.92.

Consider SCKKECSGSRRTKKCMQKCNREHGH-NH2 (ends and bridges not checked) [Hl15-1-1 (Heterometrus laoticus toxin)], for which the percent inhibition of the K+ current by 30 μM Hl15-1-1 (whole-cell patch clamp) in series [3] stood at 1%; in series [5], 26.3%. The percent inhibition of the K+ efflux by 30 μM Hl15-1-1 (whole-cell patch clamp) was 32% in series [4] and 6.1% in series [6].

The values are drawn from publication PMC3644210 (Biochemical pharmacology, 2012).
